# US20040154051A1 (SYNGENTA PARTICIPATIONS, published 2004)
# T1: NIM450 bait (first 450 amino acids of the NIM1 protein, LexA fusion) (Arabidopsis, UniProt P0A7C2 1-202; P93002 1-450)
# T1 construct: The LexA fusion is stated outright only for the full-length bait
# T1 sequence (looked up): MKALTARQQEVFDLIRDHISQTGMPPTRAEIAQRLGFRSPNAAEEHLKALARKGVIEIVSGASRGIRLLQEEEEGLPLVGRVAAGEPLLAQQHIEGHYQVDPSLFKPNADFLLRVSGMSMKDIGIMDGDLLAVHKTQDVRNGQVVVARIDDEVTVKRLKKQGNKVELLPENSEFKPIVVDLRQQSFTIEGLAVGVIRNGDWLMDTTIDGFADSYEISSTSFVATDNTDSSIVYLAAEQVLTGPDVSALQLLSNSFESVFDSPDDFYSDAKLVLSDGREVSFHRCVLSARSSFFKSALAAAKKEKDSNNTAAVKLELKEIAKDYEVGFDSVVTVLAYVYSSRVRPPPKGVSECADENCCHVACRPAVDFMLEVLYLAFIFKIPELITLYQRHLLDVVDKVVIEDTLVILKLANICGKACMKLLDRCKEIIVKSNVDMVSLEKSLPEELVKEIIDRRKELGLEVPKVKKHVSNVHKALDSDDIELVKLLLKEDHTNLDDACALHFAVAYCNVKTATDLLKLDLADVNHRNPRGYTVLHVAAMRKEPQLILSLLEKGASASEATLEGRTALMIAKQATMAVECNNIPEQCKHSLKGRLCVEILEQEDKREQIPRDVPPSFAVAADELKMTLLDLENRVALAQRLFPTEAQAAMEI
# Biological target: T1, NIM450 bait (first 450 amino acids of …)
# Assay: yeast two-hybrid (LexA bait, B42 prey; Leu2 and LacZ reporters)
# Experimental: These baits are transformed into yeast strain EGY188, which contains a low sensitivity LexA operator fused to the Leu2 gene, and appropriate tests are performed to determine whether the NIM1 fusion proteins intrinsically activate expression of the yeast reporter genes. […] The library is transformed in combination with one of the three NIM1 baits above and a plasmid containing 2 LexA operators fused to LacZ as a secondary reporter. Approximately 10⁶ transformants are analyzed in screens with each bait, and individual clones that activate both the Leu2 and LacZ reporters are isolated and sequenced by standard procedures.
binder,measurement,value
"NI16 clone (Arabidopsis NI16 cDNA clone from the pJG4-5 library, fused to the B42 transcriptional activation domain) (other, not shown: large carriers, also called NI16 protein) MNNSLKKEERVEEDNGKSDGNRGKPSTEVVRTVTEEEVDEFFKILRRVHVATRTVAKVNGGVAEGELPSKKRKRSQNLGLRNSLDCNGVRDGEFDEINRVGLQGLGLDLNCKPEPDSVSLSL",binding result,no binding
